Target: mumps hemagglutinin neuraminidase (HN) globular head domain, monomeric (Mumps virus genotype G (strain not …))

Binder | binding result
C7 (antibody, V domains shown) VH: QITQKSEGSGILQPSQTLSLTCSFSGFSLNISGMGVGWIRQPSGKGLEWLAHIWWDDVKRYNPALKSRLTISKDTSSRQVFLKIASVDTADTATYYCVRIDNSYAMDYWGQGTSVTVSS VL: DIVLTQSPASLAVSLGQRATISCRASKSVSTSGYSYVHWFQQKPGQPPKLLIYLASNLESGVPARFSGSGSGTDFTLNIHPVEEEDAATYYCQHSRELPWTFGGGTKLEIK | binds
G9 (antibody, V domains shown) VH: EVQLQQSGPEQVRTGASVKISCKASGYFFTGYYLHWVRQSHGKSLEWIGYIRSYNGATKYNQKFEGKTTFTVDTSSSTAYMQINSLTSEDSAVYYCAKDEDSGYAMDYWGQGTSVTVSS VL: DIVMTQSHKFMSTLVGDRVAITCKASQDVSSAVAWYQQKPGQSPKLLIYSASYRFTGVPDRFTGSGSGTDFTFTITTVQTEDLAIYFCQQHYSLPWTFGGGTKLEIK | binds
E10 (antibody, V domains shown) VH: EVQLQQSGAELVRPGSSVKLSCKASGYTFTWYWIDWMKQRPGQGLEWIGNIYPSDSEVQYNQKFKDRATLTLDKSSTTAYMQLSSLTSEDSAVYYCARRLYDYFALDFWGQGTSVTVSS VL: DIVMTQAAFSNPVTLGTSASISCRSSKSLQHSNGITYLYWYLQKPGQSPQLLIYQMSKFASGVPDRFSSSGSGTDFTLRISRVEAEDVGVYYCAQNLELPWTFGGGTKLEIK | binds
F10 (antibody, V domains shown) VH: EVQLQQSGAELVRPGSSVKLSCKASGYTFTWYWIDWLKQRPGQGLEWIGNIYPSDSAVQYNQNFKDRATLTLDTSSTTAYLHLSSLTSEDSAVYYCARRIYDYFALDFWGQGTSVTVSS VL: DIVMTQAAFSHPVTLGTSASISCRSSKSLQHSNGITFLYWYLQKPGQSPQLLIYQMSKLASGIPDRFSSSGSGTDFTLRISRVEAEDVGVYYCAQNLELPWTFGGGTKLEIK | binds
D11 (antibody, V domains shown) VH: EVQLQQSGAELVRPGTSVKLSCKTSGYTFISYWIHWVKQRPGQGLEWIGVIDPSDSYTNYNQNFKGKVTLTVDTSSSTAYMQLSSLTSEDSAVYYCARFDYDDYWGQGTTLTVSS VL: QIVLTQSPAIMSASPGEKVTMTCSASSSVTYMQWYKQKSGTSPKRWIYDTSKLASGVPARFSGSGSGTSYSLTISSMEAEDAATYYCQQWNTNPWTFGGGTKLEIK | binds
C9 (antibody, V domains shown) VH: EVKLLQSGGGLVQPGGSLKLSCAASGIDFSRYWMGWVRRAPGKGLEWIGEINPDSSTINYAPSLKDKFIISRDNAKNTLYLQMIKVRSEDTALYYCARYWADWFFDVWGTGTTVTVSS VL: DIQMTQSSSYLSVSLGGRVTITCTASDHIDNWLAWYQQKPGNAPRLLLSGATSLDTGVPSRFSGSGSGKDFTLSITSLQTEDVATYYCQQYWSTPYTFGGGTKLEIK | binds
B11 (antibody, V domains shown) VH: EVQLQQSGAEPVRPGTSVKFSCKASGYTLTDYWMHWVKQRPGQGLDWIGVIDPSDSYTTYNQKFKGKATLTVDKSSSTAYMQLSSLTSEDSAVYYCARGPTLYYFDYWGQGTTLTVSS VL: DIVMTQPQKFMSTSVGDRVSVTCKASQNVGTNVVWCQQKPGQSPKALIYSASYLYSGVPDRFTGTGSGTDFTLTISNVQSEDLAEYFCQQYNNYPLTFGAGTKLELK | binds
E7 (antibody, V domains shown) VH: EVKLVESGGGLVQPGGSLRLSCATSGFTFTDYYMSWVRQTPGKALEWLGFIRNKPNGYTTEYNASVKGRFTISRDNSRSVLYLQMNVLRAEDSATYFCARVPHDYGFFDYWGQGTTLTVSS VL: DVLMTQSPLSLPVSLGDQASISCRSSQSIEHINGHTYLEWYLQKPGQSPKVLIYKVSNRFSGVPDRFSGSGSGTDFTLRISRVEAEDLGVYYCFQASHLPYTFGGGTKLEIK | binds
B12 (antibody, V domains shown) VH: EVQLQQSGPELVKPGASVKIPCKASGYTFTEYNMDWVKQSHGKSLEWIGDINPNNGDTIYNQKFKGKATLTVDKASSTAYMELRSLTSEDTAVYYCARGTLYGSNYYFVMDYWGQGTSVTVSS VL: DIQITQSPASLSASVGETVTITCGASENIYGALNWFQRKQGKSPQLLIYGATTLADGMSSRFSGNGSGRQYSLKISGLHPDDVATYYCQNVLSIPWTFGGGTKLEIK | binds
G6 (antibody, V domains shown) VH: QIQLVQSGPELKKPGETVKISCKASGYTFTPYGLSWVKQAPGKVLKWMGWINTSSGVPTYADDFKGRFAFSLETSVSTAYLQINNLKNEDTATYFCARISVSFYYGLYFDYWGQGTTLTVSS VL: DIQMTQSPSSMSVSLGDTVSITCHASQGIANNIGWLQQKPGKSFKGLLYHGSTLEDGVPSRFSGSGSGAAYSLTISSLESEDFADYYCIQYAQLPYTFGGGTKLEIK | binds
F11 (antibody, V domains shown) VH: EVQLQQSGPELVKPGASVKISCKASGYTFTDYYMNWVKQSHGKSLEWVGDINPNNGVTRYNQNFKGKGTMTVDKSSRTAYMEFRSLTSEDSAVYYCGRLGYYGKYKDGMDYWGQGTSVTVSS VL: DIQMTQSPASLSVSVGETVTITCRASDNIYSNLAWYQQRQGKSPQLLVYAATNLLDGVPSRFSGSGSGTHYSLKINSLQSEDFGTYYCQHFWGTPFTFGSGTKLEIK | binds

Reference: article PMC11588112 (Proceedings of the National Academy of Sciences of the …, 2024)
